Numbered stars: 1 amine (or outer) side, 2 acyl side, 3 side chain; on linkers, the order of the positions; unused ones are H or OH. Bridge positions count the residues as written; N and C are the ends. Square brackets hold non-standard residues; d marks the D form. * marks the point of attachment. C20 diacid = O=C(O)CCCCCCCCCCCCCCCCCCC(=O)*; γGlu = O=C(O)[C@H](CCC(=O)[*:2])N[*:1]; Hyp = O=C(O)[C@@H]1C[C@@H](O)CN1; NMeI = CC[C@H](C)[C@H](NC)C(=O)O; Aad = N[C@@H](CCCC(=O)O)C(=O)O; Orn = NCCC[C@H](N)C(=O)O; Sar = CNCC(=O)O
Columns and labels:
[1] = molecular target: recombinant human calcitonin receptor (hCT-R) (human), P30988; experiment: cell-based or functional assay
[2] = molecular target: recombinant human amylin 3 receptor (hAMYR3) (human), P30988; experiment: cell-based or functional assay
recombinant human amylin 3 receptor (hAMYR3) (human), P30988, sequence (P30988 25-474, chain 1 of 2): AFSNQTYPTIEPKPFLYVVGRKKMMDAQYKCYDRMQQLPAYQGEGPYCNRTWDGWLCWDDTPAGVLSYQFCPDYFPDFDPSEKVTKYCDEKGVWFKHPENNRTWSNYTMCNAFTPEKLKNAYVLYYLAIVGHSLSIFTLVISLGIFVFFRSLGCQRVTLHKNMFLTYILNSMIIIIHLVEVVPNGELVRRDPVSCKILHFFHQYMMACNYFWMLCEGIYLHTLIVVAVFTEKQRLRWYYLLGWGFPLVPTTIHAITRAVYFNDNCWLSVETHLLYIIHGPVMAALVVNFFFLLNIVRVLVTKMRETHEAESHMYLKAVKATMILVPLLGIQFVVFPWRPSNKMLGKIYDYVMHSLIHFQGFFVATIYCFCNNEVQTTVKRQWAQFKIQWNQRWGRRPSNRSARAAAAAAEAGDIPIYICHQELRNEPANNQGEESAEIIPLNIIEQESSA
recombinant human amylin 3 receptor (hAMYR3) (human), P30988, sequence (O60896 24-148, chain 2 of 2, further chain): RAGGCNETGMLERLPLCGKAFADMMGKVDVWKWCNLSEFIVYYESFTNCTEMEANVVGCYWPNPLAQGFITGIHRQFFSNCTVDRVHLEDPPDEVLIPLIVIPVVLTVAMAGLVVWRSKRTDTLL

recombinant human calcitonin receptor (hCT-R) (human), P30988, sequence (P30988 25-474): as the sequence (P30988 25-474, chain 1 of 2) above

Binder | hCT-R EC50 [nM] (cAMP formation, 1321N1 cells expressing hCT-R) [1] | hAMYR3 EC50 [nM] (cAMP formation, 1321N1 cells expressing hAMYR3) [2]
{C20 diacid-γGlu}-RDGTATKATERLA[Aad]FLQRAAF[Sar]A[NMeI]LSSTEVGSNT[Hyp]-NH2 (lactam 2-7; SMILES CC[C@H](C)[C@@H](C(=O)N[C@@H](CC(C)C)C(=O)N[C@@H](CO)C(=O)N[C@@H](CO)C(=O)N[C@H](C(=O)N[C@@H](CCC(=O)O)C(=O)N[C@H](C(=O)NCC(=O)N[C@@H](CO)C(=O)N[C@@H](CC(N)=O)C(=O)N[C@H](C(=O)N1C[C@H](O)C[C@H]1C(N)=O)[C@@H](C)O)C(C)C)[C@@H](C)O)N(C)C(=O)[C@H](C)NC(=O)CN(C)C(=O)[C@H](Cc1ccccc1)NC(=O)[C@H](C)NC(=O)[C@H](C)NC(=O)[C@H](CCCNC(=N)N)NC(=O)[C@H](CCC(N)=O)NC(=O)[C@H](CC(C)C)NC(=O)[C@H](Cc1ccccc1)NC(=O)[C@H](CCCC(=O)O)NC(=O)[C@H](C)NC(=O)[C@H](CC(C)C)NC(=O)[C@H](CCCNC(=N)N)NC(=O)[C@H](CCC(=O)O)NC(=O)[C@@H](NC(=O)[C@H](C)NC(=O)[C@@H]1CCCCNC(=O)C[C@H](NC(=O)[C@H](CCCNC(=N)N)NC(=O)CC[C@H](NC(=O)CCCCCCCCCCCCCCCCCCC(=O)O)C(=O)O)C(=O)NCC(=O)N[C@@H]([C@@H](C)O)C(=O)N[C@@H](C)C(=O)N[C@@H]([C@@H](C)O)C(=O)N1)[C@@H](C)O) [Compound 31] | 0.227 | 0.066
{C20 diacid-γGlu}-RDPTATKATERLA[Aad]FLQRSSF[Sar]A[NMeI]LSSTEVGSNT[Hyp]-NH2 (lactam 2-7; SMILES CC[C@H](C)[C@@H](C(=O)N[C@@H](CC(C)C)C(=O)N[C@@H](CO)C(=O)N[C@@H](CO)C(=O)N[C@H](C(=O)N[C@@H](CCC(=O)O)C(=O)N[C@H](C(=O)NCC(=O)N[C@@H](CO)C(=O)N[C@@H](CC(N)=O)C(=O)N[C@H](C(=O)N1C[C@H](O)C[C@H]1C(N)=O)[C@@H](C)O)C(C)C)[C@@H](C)O)N(C)C(=O)[C@H](C)NC(=O)CN(C)C(=O)[C@H](Cc1ccccc1)NC(=O)[C@H](CO)NC(=O)[C@H](CO)NC(=O)[C@H](CCCNC(=N)N)NC(=O)[C@H](CCC(N)=O)NC(=O)[C@H](CC(C)C)NC(=O)[C@H](Cc1ccccc1)NC(=O)[C@H](CCCC(=O)O)NC(=O)[C@H](C)NC(=O)[C@H](CC(C)C)NC(=O)[C@H](CCCNC(=N)N)NC(=O)[C@H](CCC(=O)O)NC(=O)[C@@H](NC(=O)[C@H](C)NC(=O)[C@@H]1CCCCNC(=O)C[C@H](NC(=O)[C@H](CCCNC(=N)N)NC(=O)CC[C@H](NC(=O)CCCCCCCCCCCCCCCCCCC(=O)O)C(=O)O)C(=O)N2CCC[C@H]2C(=O)N[C@@H]([C@@H](C)O)C(=O)N[C@@H](C)C(=O)N[C@@H]([C@@H](C)O)C(=O)N1)[C@@H](C)O) [Compound 29] | 1.07 | 0.312
{C20 diacid-γGlu}-RDQTAT[Orn]ATERLA[Aad]FLQRGTF[Sar]A[NMeI]LSSTEVGSNT[Hyp]-NH2 (lactam 2-7; SMILES CC[C@H](C)[C@@H](C(=O)N[C@@H](CC(C)C)C(=O)N[C@@H](CO)C(=O)N[C@@H](CO)C(=O)N[C@H](C(=O)N[C@@H](CCC(=O)O)C(=O)N[C@H](C(=O)NCC(=O)N[C@@H](CO)C(=O)N[C@@H](CC(N)=O)C(=O)N[C@H](C(=O)N1C[C@H](O)C[C@H]1C(N)=O)[C@@H](C)O)C(C)C)[C@@H](C)O)N(C)C(=O)[C@H](C)NC(=O)CN(C)C(=O)[C@H](Cc1ccccc1)NC(=O)[C@@H](NC(=O)CNC(=O)[C@H](CCCNC(=N)N)NC(=O)[C@H](CCC(N)=O)NC(=O)[C@H](CC(C)C)NC(=O)[C@H](Cc1ccccc1)NC(=O)[C@H](CCCC(=O)O)NC(=O)[C@H](C)NC(=O)[C@H](CC(C)C)NC(=O)[C@H](CCCNC(=N)N)NC(=O)[C@H](CCC(=O)O)NC(=O)[C@@H](NC(=O)[C@H](C)NC(=O)[C@@H]1CCCNC(=O)C[C@H](NC(=O)[C@H](CCCNC(=N)N)NC(=O)CC[C@H](NC(=O)CCCCCCCCCCCCCCCCCCC(=O)O)C(=O)O)C(=O)N[C@@H](CCC(N)=O)C(=O)N[C@@H]([C@@H](C)O)C(=O)N[C@@H](C)C(=O)N[C@@H]([C@@H](C)O)C(=O)N1)[C@@H](C)O)[C@@H](C)O) [Compound 28] | 1.23 | 0.268

The next lines start with the values.

hCT-R EC50 [nM] (cAMP formation, 1321N1 cells expressing hCT-R) [1] | hAMYR3 EC50 [nM] (cAMP formation, 1321N1 cells expressing hAMYR3) [2] | Binder
0.232 | 0.122 | {C20 diacid-γGlu}-EDGTATKATERLA[Aad]FLQRSSF[Sar]A[NMeI]PSSTEVGSNT[Hyp]-NH2 (lactam 2-7; SMILES CC[C@H](C)[C@@H](C(=O)N1CCC[C@H]1C(=O)N[C@@H](CO)C(=O)N[C@@H](CO)C(=O)N[C@H](C(=O)N[C@@H](CCC(=O)O)C(=O)N[C@H](C(=O)NCC(=O)N[C@@H](CO)C(=O)N[C@@H](CC(N)=O)C(=O)N[C@H](C(=O)N1C[C@H](O)C[C@H]1C(N)=O)[C@@H](C)O)C(C)C)[C@@H](C)O)N(C)C(=O)[C@H](C)NC(=O)CN(C)C(=O)[C@H](Cc1ccccc1)NC(=O)[C@H](CO)NC(=O)[C@H](CO)NC(=O)[C@H](CCCNC(=N)N)NC(=O)[C@H](CCC(N)=O)NC(=O)[C@H](CC(C)C)NC(=O)[C@H](Cc1ccccc1)NC(=O)[C@H](CCCC(=O)O)NC(=O)[C@H](C)NC(=O)[C@H](CC(C)C)NC(=O)[C@H](CCCNC(=N)N)NC(=O)[C@H](CCC(=O)O)NC(=O)[C@@H](NC(=O)[C@H](C)NC(=O)[C@@H]1CCCCNC(=O)C[C@H](NC(=O)[C@H](CCC(=O)O)NC(=O)CC[C@H](NC(=O)CCCCCCCCCCCCCCCCCCC(=O)O)C(=O)O)C(=O)NCC(=O)N[C@@H]([C@@H](C)O)C(=O)N[C@@H](C)C(=O)N[C@@H]([C@@H](C)O)C(=O)N1)[C@@H](C)O) [Compound 30]
0.521 | 0.325 | {C20 diacid-γGlu}-RDGTAT[Orn]ATERLA[Aad]FLQRGTF[Sar]A[NMeI]LSSTEVGSNT[Hyp]-NH2 (lactam 2-7; SMILES CC[C@H](C)[C@@H](C(=O)N[C@@H](CC(C)C)C(=O)N[C@@H](CO)C(=O)N[C@@H](CO)C(=O)N[C@H](C(=O)N[C@@H](CCC(=O)O)C(=O)N[C@H](C(=O)NCC(=O)N[C@@H](CO)C(=O)N[C@@H](CC(N)=O)C(=O)N[C@H](C(=O)N1C[C@H](O)C[C@H]1C(N)=O)[C@@H](C)O)C(C)C)[C@@H](C)O)N(C)C(=O)[C@H](C)NC(=O)CN(C)C(=O)[C@H](Cc1ccccc1)NC(=O)[C@@H](NC(=O)CNC(=O)[C@H](CCCNC(=N)N)NC(=O)[C@H](CCC(N)=O)NC(=O)[C@H](CC(C)C)NC(=O)[C@H](Cc1ccccc1)NC(=O)[C@H](CCCC(=O)O)NC(=O)[C@H](C)NC(=O)[C@H](CC(C)C)NC(=O)[C@H](CCCNC(=N)N)NC(=O)[C@H](CCC(=O)O)NC(=O)[C@@H](NC(=O)[C@H](C)NC(=O)[C@@H]1CCCNC(=O)C[C@H](NC(=O)[C@H](CCCNC(=N)N)NC(=O)CC[C@H](NC(=O)CCCCCCCCCCCCCCCCCCC(=O)O)C(=O)O)C(=O)NCC(=O)N[C@@H]([C@@H](C)O)C(=O)N[C@@H](C)C(=O)N[C@@H]([C@@H](C)O)C(=O)N1)[C@@H](C)O)[C@@H](C)O) [Compound 27]
